Laboratory results published in the domain aggregation screens of Martell et al. (2025).

Assay: soluble fraction after stress (log2 fold change); higher = more stays soluble; pooled small domains, quantitative proteomics
Conditions: stress: 50 degC
Outline: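 Quantitative proteomics served as the high-throughput read-out for pooled custom libraries of small protein domains. Each was stressed at 50°C. Aggregation propensity is expressed as the base-two log fold change in soluble protein after stress. A higher value means a larger share of the protein remains in solution.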

| Sequence | soluble fraction (log2) |
| --- | --- |
| HMDTVEFPVQVNGKVRGKITVAADAGKDAIETAALADEKVLAFLDGATPKKVIVVPGKLVNLVVQPG | 0.435 |
| HMPEMHIYTKEGKIHITHIDENEEIKIYNPLGQIIYTGSPQDIPVLEGKGLYIIYIGKSAVEVLES | -1.65 |
| HMSVDVGMQLRKLREERKISMRELARLSGLSANALSMIERGLTSPSVSTLNKLAGALEVPITAFFRI | -0.285 |
| HMLQMSDSSALEAILDEVLGSEMGQKALSDIEAGNMKAMGFIIGQSMKLSKGQANPQIINKLLQQRLK | -0.000287 |
| HMTDKLEEEAKKKAMEDALADEMNISKTIVHDGIRELARIGFLDVISRKGIYVADYTFTGNLETLLAVIRY | -0.926 |
| HMVSPLEKSQSFGSFEISREFARTLGLTSARNWENWAASDSRPINIPYSPNVFYKNKGWIDWSDWLGTE | -0.286 |
| HMVTPPMVVVDVQGEVKTPGVYHLPTNSRVNDAIKAAGGPKQSADLSYINQARMVKDGEQIYVEKKL | 0.12 |
| HMGPDALSIGRRVRQVRTARGMTLDELAAAVSRAPSQLSMIETGKREPKLSLLQAIARALGTTIDALLT | -0.176 |
| HMNLPISDREKELLTLLSKGLLYKEIASKLDITIGTVKQHIHNIYHKLHVSNKTEALNLFNK | -0.685 |
| HMTLTLEQAAAIKNSEGEQYGKIESERLAAMSVQIDKAIKSNGHDPNKKADLERKLDAIGIILNARAAG | 0.122 |
| HMHAGMKSWTIQYEKSPIYGSFLMYKDGNIYIQKEDNVVVHFPLDRFSQNDQAILKSRIEKIDQINKSS | -0.0347 |
| HMGIMSEITHRVLRLLGLLESRSTWTGSDLAERLGVTQRTIRRDVIRLRELGYQVDSVQGLDGGYRMS | -2.48 |
| HMENYGEAITYIHGMIEDSSEKMLAASKALKVNANTLIKFMKDPYSVAAHIRDRIVENLANLEKAVKAI | 0.075 |
| HMDPDAIVSKGQLGALNNAIGRFIAQGGSQTVVDKGIAKRNPNAKKPADLTNSQAESLEAAILKILNG | 0.515 |
| HMNSDQMKEHLDNLVDMAKKNDNTLIDTEIVNYFVGKPDIELNTDMMTKIFDYLDEHHVAVLS | -0.107 |
| HMTDRINIGDVVTIISKDREDSQIVYMRYHKGKLSILGELILNKTKNDTVDFKGRTYDIATIEKS | -1.83 |
| HMDSDRAARLSSLTPQQFRVLRMVSEGQLNKQIAYQLNISEATVKSHVSAILQKLGVNSRTQAVILATRLD | -2.01 |
| HMNNYEGIVKSVSNSNVYIQVAGRTIGYTISPHTIIMVNGKNVPASELMPGQHVSYTNKGSKLSYININS | -0.103 |
| HMTVKRNILQELLKTAFKHPEDFRPSKTFYGETGIGQKRFWALYYGHKAVTQKEYYAVADYLG | -0.0349 |
| HMGDKRPIAVGDYVKLEGQDTPGQVLSISGKNATVGFGMLKTTVKLDRLRHTMAKPQTGASAGVR | 0.178 |
| HMQIEQVDYGTFMTMIDDKKIDKVEIKDNQILFIGKDDNKKYKTGIVQDPQLAERLHASGAVFSQDI | -0.136 |
| HMPQLSNEEQKIVDALEGSDGKQINLITVETNIPMARLMSVLFEMEMRGIVKSLNGARYKLN | -0.163 |
| HMKYSQAMIAQIIKHFHLPNNTVVTGEDVDAILLRSVDGGDGIYGGDVVSIWKYYKKQNDIQEIVT | -0.645 |
| HMDMAENEEYKVIMGQAQQLAEQFFPADDNTRRIMLGQLKLENYSLYLLTKQILDEATKGQAAAAN | 0.0229 |
| HMSETTSRVLQLLGLLQARRVWTGQELADRLGVTGRSVRRDIERLRDLGYPVHASKGRDGGYQLGA | -1.01 |

| Sequence | soluble fraction (log2) |
| --- | --- |
| HMSAERFDFRIGPELAGKRFDQALAEALPQFSRSRLSTWIKDGRATLNGATMRPKDSVHAGDTVVVNAE | 0.126 |
| HMLLKIRPDLDGNEIMKLLNIAAGPNVGKAYEHLLELRLEHGPLGKERAEQELMNWWSARSQ | -1.09 |
| HMQPRYMLIKTAILDAIERGEMKPGSQVPSENQLAQQHNVSRMTARRALSEMVDDGILMRSQGIGTFVSD | -0.0879 |
| HMDRTIGEIGLVTETIDSTLESGRVMVDGLSWKARTSDNTVLEAGTRVQVKEIHGVTLTVEKA | 0.166 |
| HMEGMQATVTQITDEGITVRYVMNGQMVTRTLTSDEVAFVNRGQAVSDLAGAYRVGQTVWIY | -0.0401 |
| HMEPELLTTKQVASVMNIGEERARAILLSRGVQPVSLPWGKERKTLRWSRRAVMTVIDTLHAEAQAKAGV | -0.582 |
| HMSMISLPNFVGKDIETVKAWAKENGITLIINKVEDSAKKDTVISQNPTNSDYSKILKGSAFTVNIAKE | 0.0206 |
| HMGIVYGVIKENWDQDHPGMVKVEILQGESGKNVSDWIPVMSPYAGKEFGAYALPEIGTQAVVAFE | -0.0355 |
| HMDYYNILGVNKAATAQDIKRAYRKLAKEHHPDHGGDATRLQQVNEAYDTLKDPQRREQYDS | 0.24 |
| HMNLLDYTTLYVTSDGKSVSFGIAGKEIPVSYIAQEAPGTVVIDDTIRIPRKYDMEYILKRFNES | -1.03 |
| HMGPEVQLAYSEFLAKVKVGEVNDVMVKGNEIHGHFSDGRTFSTYSPNDPDLVEKLNKNKVMIKAAPP | 0.0475 |
| HMELVEVGDLTGLTVEQAENVLKNSNISISIDKYDESDKYEKDQIISQNPQNKKVKKGTAIHVVLSNGP | 0.0285 |
| HMAVETYRVKKSDTMQTIADRFGLSVEELLEYNQAYKTRELRARDILIIPSRKERKKLQQQKAQAAAQVVQ | -0.253 |
| HMERTVEVVDINDVFSQFLRLYSRERAAGLLSVFKRVEHGLSWQGNPVLLERILSNVFENAIKYAA | -0.0515 |
| HMGFTDREREIIRNDLVATGRELFGTFGLKKTSIEDLTKAVGIAQGSFYTFFNSKEELYLEVMDREGEA | -0.851 |
| HMNMFGIQRRNHLLSLLQEKKSITVQEAAVIFEVAEETIRRDFRTMEGQGLIVRTHGGALLADD | -2.19 |
| HMTAEVIYVDVGGEVNQPSVVELTDGSRVTDAIAAAGGLTEKADLTDINRAAFVSDGEKIFIPSQEE | -0.0513 |
| HMDHTYKHIELTGSSEKGIEEAVQNALAKASESVQNMRWLEVTDTRGHIEDGRVAHWQVTVKVGFTL | -0.0248 |
| HMTPILTAQQVVAALQAAGYRNVHDLEFEHGRWEADAVNAAGQRVELHINPYTGAIERERLD | ≥ 0.62 |
| HMAYLTVPAVIAKDTKKSIQLLESKGFEVVIQDSIYTDTLARGTVIKQLPDPNATVKINRTVYLTVNRYTP | -2.1 |
| HMRLEYLVDVEEISIKEYLMLLGLSRRLARKIKLYGKMYINHQEAFNYHLVKKGDLLTIEFDE | -2.55 |
| HMENPLVEVVVPVLNEERILKANIETLHHFLRTQPGFNFRITIADNGSTDKTQAIANDLTNSHAVIRV | -0.12 |
| HMRSAKLPYSEFLKLVDTDKVNDVSIVGRTISGHLDDGSKFSTYTPPNDPNIIEKLSSHNVIINSAPE | -0.0117 |
| HMKLSNELLNAIMLIKKGIRNPTSLAQRLNTDTQYAKNLLEHLKMTGLINEHSRLTSRGLDIFHQK | 0.163 |
| HMQSYHVGDKVTIKNSASHWATGQSIYNGVKGHTYKIIQTNGHKLLLDQVISWINDGDVYKAGS | -0.492 |
